Reference: patent publication US20150098946A1 (Genentech, published 2015)

Biological target: T1, TAT194 polypeptide as used in the BIAcore analysis (human, UniProt P07949 29-635, limits assumed)
T1 construct: The construct used for the BIAcore analysis (extracellular domain, tag, fusion, isoform) is not described; also called RET
Experiment: standard BIAcore analysis

| Binder | Kd [nM] |
| --- | --- |
| anti-TAT194 monoclonal antibody R4212 (antibody, V domains shown, Monoclonal antibody from a mouse hybridoma; kappa VL) VH: DVQLQESGPGLVAPSQSLSITCTVSGFSLSRYSVHWVRQPPGKGLEWLGMIWLGGSTDYNSALKSRLSISKDISKSQVFLKMNSLQTDDTAMYYCARNLDSRGFAHWGQGTLVTVSA VL: DVLMTQTPLSLPVSLGDQASISCRSSQSIVHSNGNTYLEWYLQKPGQSPKLLIYKVSNRFSGVPDRFSGSGSGTDFTLKISRVEAEDLGVYYCFQGSHVPPTFGGGTKLEIKR | 105 |
| anti-TAT194 monoclonal antibody R4204 (antibody, V domains shown, Monoclonal antibody from a mouse hybridoma; kappa VL) VH: QVQLQQSGAELAKPGTSVKMSCKASGYTFTTYWMHWIKQRPGQGLEWIGYINPSTGYSEYNQKFKDKATLTADRSSSTAYMQLSSLTSEDSTVYYCARWRFYGSTYGMDYWGQGTSVTVSS VL: QIVLTQSPALMSAFPGEKVTLTCSASSSVTYMYWYQQKPRSSPKPWIYLTSKLASGVPSRFSGSGSGTSFSLTITSMEAEDAATYYCQQWTGNPLTFGAGTKLELKR | 169 |
| anti-TAT194 monoclonal antibody R4209 (antibody, V domains shown, Monoclonal antibody from a mouse hybridoma; kappa VL) VH: EVNLEESGGGLVQPGGSMKLSCVASGFTFSNYWMNWVRQSPEKGLEWVADISLKSNNYGTHYAESVNGRFTISRDDSTSSVYLQMNNLRAEDTGIYYCAVYYYGVKFYYFVLGYWGQGTSVTVSS VL: DIVMTQSHKFMSTSVGDRVSITCKASQDVSTAVAWYQQKPGQSPKLLIYWGSTRHTGVPDRFTGVGSGTDYSLTISSVQAEDLALYYCQQHYNIPWTFGGGTKLEIKR | 2.55 |
| anti-TAT194 monoclonal antibody R4203 (antibody, V domains shown, Monoclonal antibody from a mouse hybridoma; kappa VL) VH: EVQLQQSGPELVKPGASMKISCKASGYSFTGFTMNWVKQSHGKNLEWIGLINPYNGVTNYNQKFRGKATLTVDESSSTAYMDLLSLTSEDSAVYYCARHYSFAMDYWGQGTSVTVSS VL: DIVLTQSPASLAVSLGQRATISCRASESVDGYGSSFMHWYQQKPGQPPKLLIYRTSNLESGIPARFSGSGSTTDFTLTINPVEADDVATYYCQQNSEDRTFGGGTKLEIKR | 0.1 |
| anti-TAT194 monoclonal antibody R4205 (antibody, V domains shown, Monoclonal antibody from a mouse hybridoma; kappa VL; also called anti-RET murine monoclonal antibody clone 4205) VH: QVQLKESGPGLVKPSQSLSLTCTVTGYSITSDYVWNWIRQFPGNKLEWMGYIHYSGGTSYNPSLKSRISITRDTSKNQFFLHLNSLTTEDTATYYCARGNYDWAFAYWGQGTLVTVSA VL: DVQITQSPSYLAASPGETITINCRASKSISKYLAWYQDKPGKTNKLLISSGSTLQSGIPSRFSGSGSGADFTLTISSLEPEDFAMYYCQQHNEYPWTFGGGTKLEIKR | 0.18 |
| anti-TAT194 monoclonal antibody R4206 (antibody, V domains shown, Monoclonal antibody from a mouse hybridoma; kappa VL) VH: DVQLQESGPGLVKPSQSLSLTCTVTGFSITSDYAWNWIRQFPGNKLEWMAYITYSGDTGYNPSLKSRISVTRDTSKNQFFLQLSSVTTEDTATYYCARGNYDWVFAYWGQGTLVTVSA VL: DVQITQSPSYLAASPGETITINCRASKSISKYLAWYQEKPGKTNKLLIYSGSTLQSGIPSRFSGSGSGTDFTLTISSLEPEDFAMYYCQQYIEYPWTFGGGTKLEIKR | 0.34 |
| anti-TAT194 monoclonal antibody R4207 (antibody, V domains shown, Monoclonal antibody from a mouse hybridoma; kappa VL) VH: DVQLQESGPGLVKPSQSLSLTCTVTGFSITSDYAWNWIRQFPGNKLEWMAYITYSGDTGYNPSLKSRISVTRDTSKNQFFLQLSSVTTEDTATYYCARGNYDWVFAYWGQGTLVTVSA VL: DVQITQSPSYLAASPGETITINCRASKSISKYLAWYQEKPGKTNKLLIYSGSTLQSGIPSRFSGSGSGTDFTLTISSLEPEDFAMYYCQQYIEYPWTFGGGTKLEIKR | 0.54 |
| anti-TAT194 monoclonal antibody R4208 (antibody, V domains shown, Monoclonal antibody from a mouse hybridoma; kappa VL) VH: QVHLQQSGSELRSPGSSVKLSCKDFDSEVFPIAYMSWVRQKPGHGFEWIGDILPNIGRTIYGEKFEDKATLDADTVSNTAYLELNSLTSEDSAMYYCGRSITRAWFAYWGQGTLVTVSV VL: DIQMTQSPSSLSASLGERVSLTCRASQEISGYLSWFQQKPDGTIKRLIYAASTLDSGVPKRFSGSRSGSDYSLTISSLASEDFADYFCLQYAGNPFTFGSGTKLEIKR | 1.25 |
